Values quoted from earlier work, collected in article PMC5711038.

Target: Fbxw7 substrate receptor (Homo sapiens) (UniProt Q969H0)
Test: FRET

Chain of UniProt Q969H0 (Q969H0 whole entry): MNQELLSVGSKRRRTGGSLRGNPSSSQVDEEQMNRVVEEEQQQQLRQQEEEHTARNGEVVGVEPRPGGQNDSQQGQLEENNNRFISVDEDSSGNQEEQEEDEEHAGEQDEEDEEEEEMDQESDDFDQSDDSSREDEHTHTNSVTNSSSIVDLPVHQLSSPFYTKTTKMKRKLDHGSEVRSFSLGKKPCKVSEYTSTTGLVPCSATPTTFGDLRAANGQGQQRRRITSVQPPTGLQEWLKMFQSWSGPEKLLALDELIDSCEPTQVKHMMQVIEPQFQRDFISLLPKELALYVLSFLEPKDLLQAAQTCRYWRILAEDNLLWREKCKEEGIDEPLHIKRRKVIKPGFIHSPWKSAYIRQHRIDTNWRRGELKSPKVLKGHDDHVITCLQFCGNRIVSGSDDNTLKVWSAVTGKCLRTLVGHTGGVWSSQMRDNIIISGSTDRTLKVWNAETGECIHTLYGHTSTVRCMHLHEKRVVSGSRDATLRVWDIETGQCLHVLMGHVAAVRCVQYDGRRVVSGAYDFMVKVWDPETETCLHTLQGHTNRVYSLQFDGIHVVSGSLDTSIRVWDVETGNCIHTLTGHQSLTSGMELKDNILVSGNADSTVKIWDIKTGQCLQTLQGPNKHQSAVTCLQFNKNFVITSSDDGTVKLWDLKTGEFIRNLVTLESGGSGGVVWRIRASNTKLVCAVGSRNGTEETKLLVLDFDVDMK

- Kd: 1 pM
Substance: Cul1 (from UniProt Q13616)
